Results from article PMC6969166, “The molecular basis of pyrazinamide activity on Mycobacterium tuberculosis PanD” (Nature Communications, 2020).

Biological target: the molecule itself
Test: crystal structure

B1: Mycobacterium tuberculosis PanD (aspartate decarboxylase), wild type, processed active enzyme (enzyme)
chain 1: MLRTMLKSKIHRATVTCADLHYVG
chain 2: SVTIDADLMDAADLLEGEQVTIVDIDNGARLVTYAITGERGSGVIGINGAAAHLVHPGDLVILIAYATMDDARARTYQPRIVFVDAYNKPIDMGHDPAFVPENAGELLDPRLGVG
notes: also called Mtb PanD; Rv3601c; copies: 4 + 4
For B1, the “stoichiometry N” value was 4.
